B1: 998 (protein)
chain: MLSIALAAALAAGAVAPDWHDGLDWHGVHVAISRDAQQGYTLAWPYGQRTIAAQPLATQTASPLFDGLFAMAQDDLKQDSVSAIRDGAFDHGQPIPCQCFETGLKWPYVWTRDLSYAIDLGLWRFDPARSRNGLKFKLSGVRVASAPQGPAPKRLYPMQDTGSGGSWPISTDRVVWFLGARHLLDDQAFADDVYRALDATLAQDRQYAFDAGFGLYRGETSFLDWREQSYPAWTADEVTFIAQSYALSTNVLHYQALQLAANLADTHHDAKAAAGYRADAAALKAAINAHFWRAERGMYMSYLSGDGTPYDSYDLLGIALAIDSGVAGGERAKQALANYPTWPAGSPVIWPERADQPIYHNRAIWPFVSAYALRAARLTEQPARIAHEIESVLRGAALYGSNMENYELLTQGQHVDEGKLSGPVVNSPRQLWSVAAALAVVTEGVFGLNEDGSVEPKLPTALVPMLFGQRRTITLDLHERQITLQLPEKISGNLLVADRTRTQGTATTVTLKAVQVPDAPLRTDAPLYAPLAPAAPVVQAAGNGWRVSAEGKVRLYLNGRAHGDIDGTATLPRQPGLTCFSATRVDAHGLESLHSPDTCVGETAKVNGSWPRRWTAPATGRYRVALDYANDHGPINTGITAAVKMLEVSCAGSDPQRLPIVMPHSVRAQRSTWGTFTAQAGSACRFALDDGFNMSYLAHFAHYTANNGSGGNGGSSGPLNQAEVHALLIAPLAADRGTP
modifications: Rhodanobacter denitrificans
B2: 1058 (protein, listed as Cyclobacterium marinum)
chain: MKLTTYYFCLIAGLCSLFTFGLHAQESAIYKQMRQNFQQPPNTAKPTVYHWWLGGDVDTVRLKEEILSFDKAGIAGFTIFEIGSRDTVFVGAGPEFLGEASLETIKVAVEEAGKYGMEVGLNTASSWNAGGNWLTPKHAAKSIYQRKVNVSGGGKEKIKLPFPDIPEKDPRGRKRLISYGKDGKPVYSEEIAVLAIPLVGENAAIDTSLIKDVSIYFDANKEVLNWDVPEGDWKIVRYVSSNSGENLVLPSKYSAGPIVDHFDADATAFHFNYIIDRLESKLGDLRKTSLKNLYMASYEARGFNWTPTLPQEFQELNGYDIKKFLPILFGEVSLSQEATAAFRAGFQRTLSELMIKNFYMKSKEICNAHGLKNNSEAGGPGYPLHDVPVEPLKALGKGLDIPRGEFWINHHNFSEEGMDVLRVVKEVSSASNIYGVGMVEMEAFTTFQQWQEGPYEMKPMGDRAFAEGMNRVVVHGSTHNPKGTGNPGIVYHAGTHYNDKRVWWKKVRPFNDYLARISYVLQEADFQSDVLYYYGDTIPNYGGHKRSRFNPGEGYDFELLNTEILFGLEVKNGKIINPRNGAEFKVLALTKEHEINPKVLSKLEQMASSGAIITGPKPNRIAPERNMKELPNMNGWLDNLWKPFSKQSFKPGSKAIYYNVSVGEILKALELSPDFSYKGNGFYTLDYTHYQKGDMDFYFIVNTTGEWLSRDLIFRQEGKVPELWNPENGNISPIPIYKETEEGISLPLSLAPHESAFVVFKPGIKPVHFTKIAHGGIHPPKVRYSDQGIEFWEEGEFGLGHGEDTLILNNFPNVKSLEGAWEIYFPEGWGAPDKAIFPELKSWTESENEGIKYFSGTARYEKKFIHEMHASEYPEAKIYLDLGDLSHVAEVWLNDKPLGITWSKPYRFDVTEAIKPGINTLKIEVANTWSNRLTGDAITGKDYTQTHVNNTVIKGMPNFRVTWENAPLIPSGILGPVTLTTVLPIAMPK
B3: 1043 (protein, listed as Flavobacterium johnsoniae)
chain: MKLSLKTFFYTMLLFSFFHAFSQEKLVSPWPESSNINQPWARWWWMGSAVDKPNLKRSLIDFHKAGIGGVEITPIYGVKGEENNFIDYLSPKWMEMLDYTIHVSDSLKMQVDMVLGTGWPYGGSHVTLPHAATKLIVEKYTVKKNETFDRDITVDSSKEKTPASLLYVVAYGNDGSFVNLTNELQNKKVNVKDKGLEGSNIKLPNKLEPNKLNWKAKKADYTIYAVFSGKTGQQVKRAAPGGKGYTLDHYSEEALKAYVIPFNEALKGREGKIRAVFNDSFEVYGTDFTPNFFEEFQKLRGYDLKKQLPVLLNETDNEIGNRIRSDYRQTISDLLLNKFDKFWTNWAHSKNFKTKLQAHGSPGNLIDLYASADIPECETFGSMPFDIPGFRRDKEDIREGDADPVMLKFSSSAAHISGKNLVSSETFTWLREHFKTALSQCKPEAEDLMLNGVNHIFLHGSTYSPDRAVWPGWQFYASVNFNSNNTIWEDAPALFSYISNCQSLLQQGKPDNEILLYWPIFDAWDKYEKGTLFYQFKIHSLSDWLYGTSFYDTTKNLMKKGYSVDFISDNFIAEAKVVNGNIVLPGGNFKSLVIPSCKKMPVETLQKLIELKKAGACILFEGLPESVPGFKDYKKQEQNLKNLLAENKIQAVSNIFTSLEDAKILPESLVNTGLKSIRRDINGEKIYYLVNHTAKTIDDFIPLQVENKEIILLDPLTHESGNAIVNKKDKITYVKIKIEPGQSYFLKTENTASQKKWNYFESASEPIALKGNWKLSFDKGGPKLPADAVVSNLESWTKLSPDAEAFSGSAAYTLQFENPNPKIENWSLNLGDVRESAKVWLNDEFIGTAWSVPYKLNIQKLKPGKNVLKIQVTNLPANRIRDMELKGQEWKIFHEINMVDKDYKKFDATKWIPMPSGLLGPVTLTALKQEN
B4: 1060 (protein, listed as Lunatimonas lonarensis)
chain: MTKTFKIGFLLLACVVFVSCSENPKQADCGLCESVGAKWIQVEKELPTEDSLFYLPNPAPLFRKEFGVESHFDSAKLFITAAGYYKATLNGEAIGKNILDPAWTDYTKRVYYAEYDLSAQIQEGTNCFGVSLGNGFYNPLPMRKWGRRNPREDLNVGKPTFIARLVLYYPNGKTKEISTDESWKYSYGPLIKNSVYLGVLYDKGMEIPGWDRPGFNDTGWKSVQVGKGPGGQLQAAFFPAVQVTEEIRPKSIHEIEKDVYIVDMGVNFTGTYKIRLAGNVGDTVTLRFGERLYEDGTLNPMTTVVGQIKAPGIGGPGSPAIAWQTSSYVVDTEPTWFSPDFTYHTFRYMEITGLQKPPLLTDITGLYFHTNVERESHFTSSNSLLNQIQDATTRTFLSNLISVQSDCAVREKFGYGGDLNATAESFIYNFDMRDIYRKTVYDWVDAINDSIFVDTAPFAGIKYCGISWESAYLITQYYLYLYYDETDLVHELYEDNLAWMDKVARIHPEGMVDSGLSDHESLEPVPVQLTGTAHYLQCAEIMETFASLKGDTKNQQRFAELSEKLRAIIKAEFWDKPVTERINRQTLFSTLLFHRIIPEDELGAARDSLVQAVKNGPSGQFNTGIFGTKYVLETLSESVPIDQVYAIVNSTKFPGWGHMISRGATTIWETWQESDNVFTNCHPMFGTVTEWYYRWLGGIRPDPKQPGFKAFVLAPRTPTGLDSISCSYRSPYGDIVSNWRRESGNSVVYDLIIPVGSVASVSLDMKAAQGLSITKDGKAFQPPVTDASTPGEFKLEGGNYKVVVSG
B5: 1024 (protein)
chain: MKRTLLLTFLLLSVSALCFSQKLVEVAKGYSCTSVNTTIFRNNSLVTHGDEQYISYYDADGYLVLGKRKLNSKQWTLHRTQYRGNVKDAHNIISIMVDGEGYLHVSFDHHGHKLNYCRSIAPGSLELGDKMPMTGVDEGNVTYPEFYPLTDGDLLFVYRSGSSGRGNLVMNRYSLKDHKWARVQDVLIDGEDKRNAYWQLYVDEKGTIHLSWVWRETWQVETNHDLCYARSFDNGVTWYKSDGEQYKLPITASNAEYACRIPQNSELINQTSMSADAGGNPYIATYWRSSDSEVPQYRIVWNDGKTWHNRQVTDRKTPFTLKGGGTKMIPVARPRIVVEDGEIFYIFRDEERGSRVSMAHTADVANGKWIVTDLTDFSVDAWEPSHDTELWKKQRKLNLFVQHTCQGDGERTAEIEPQMIYVLEANTNTKK
modifications: Bacteroides thetaiotaomicron
B6: 1011 (protein, listed as Paenibacillus sp.)
chain: MQSNTAVLLKGGDAVYMKVKGDTDNMAAKDWGDWSARWIWLQEEQGNADKDARHERVYFRRVFELPAGTGKAYSLNMAITGDSRYRLFVNGQRQWAGPCKGHEHVQYYEEFNLEGILQPGINVIAVTVVHYAGTAPFEMGEDGPLSVWRSEQGGLLVEAEITADGQLVQELPTDTSWKAIRDLSYRLRPFPMMRWMGGLEEAAGDTALRDWTLPEYDDSAWSAARIVQPVRDDYGQLTPWQLERRPVPLLYEQEQCFWKLMRSSCGEGKALFTAGHRLELRDGASSTVPSIAGPAAEGVLVQAGQQLWLELDAGELTTGYLQLKLQGGGGSLITLQYAECYEEETGDEEVRRKAVRDEMREQVLRGGYDSYRPAGYGTEDQPEVYEPFWFRTFRYVRLEVHAGHEPLRITGINYRETGYPLQLQGSFHCSDERYNRLWELSVRTLSRCMHETYEDTPYYEQLQYTMDTRLMMEFTYLLSGDDRLARRAMEDYRASQLPNGMLQSRYPSVLPQVIPSFSLYWIGMIHDHYRVFRDLTLVKHYRTAMLSVLDWFDQRLTPEGLVDRTPRQYWNYYDWVEEWPLGAPDCTNEAPATLMSLMYAFALGQAAELLEASGWTQIAAELRQRKAAVNAAVLDNCRQADGPLFRDSPEAGPEVQLSQHTQVWAVLAGTVSAAEGEALLQTVLTDTSMAKLSLPMSYYLFRALELSGMYDRSYGLWTRWMKQLELGLTTLPEIDSADTRSDCHAWSALPITEFTRGILGVRQDIDGIILQPHCGDLQYASGAVSTEQGLITVSWEITTEEGVEVFRLEAVWTPGSAITVILPNGEVQKSDTGRIEIDIRGFNC

Assay: Experiment 6-1: screening of rhamnosidases for derhamnosylation of saponins in treated bark extract (2%), QS-17 2310 to QS-18 2164 (PAR %)
Assay type: biochemical, Quillaja saponaria
Details: TBE 2%, pH 7.5, 30 degC, 18 h; TIC peak area ratio percent, LCMS/MS; negative controls 3.061, 2.429

| Molecule | Peak57 (PAR %) [%] |
| --- | --- |
| B1 | 3.326 |
| B2 | 3.144 |
| B3 | 3.119 |
| B4 | 2.888 |
| B5 | 2.924 |
| B6 | 3.124 |

Assay: Experiment 6-1: screening of rhamnosidases for derhamnosylation of saponins in treated bark extract (2%), desglucosyl-QS-17 2134 to QS-21 1988 (PAR %)
Assay type: biochemical, Quillaja saponaria
Details: TBE 2%, pH 7.5, 30 degC, 18 h; TIC peak area ratio percent, LCMS/MS; negative controls 2.719, 2.158

| Molecule | Peak75 (PAR %) [%] |
| --- | --- |
| B1 | 2.402 |
| B2 | 2.398 |
| B3 | 2.791 |
| B4 | 2.382 |
| B5 | 2.806 |
| B6 | 2.854 |

Assay: Experiment 6-1: specificity of rhamnosidases towards other rhamnose residues (C3 saccharide rhamnose, C28 saccharide rhamnose)
Assay type: biochemical, Quillaja saponaria
Details: TBE 2%, pH 7.5, 30 degC, 18 h; LCMS/MS; negative controls 0.18, 0.17

| Molecule | ratio PP/QS-21 |
| --- | --- |
| B1 | 0.15 |
| B2 | 0.17 |
| B3 | 0.15 |
| B4 | 0.15 |
| B5 | 0.17 |
| B6 | 0.19 |

Assay: Experiment 6-1: screening of rhamnosidases for derhamnosylation of saponins in treated bark extract (2%), QS-17 2296 to QS-18 2150 (PAR %)
Assay type: biochemical, Quillaja saponaria
Details: TBE 2%, pH 7.5, 30 degC, 18 h; TIC peak area ratio percent of rhamnosylated starting saponin to derhamnosylated product, LCMS/MS; negative controls 4.876, 5.225

| Molecule | QS-17 (PAR %) [%] |
| --- | --- |
| B1 | 5.111 |
| B2 | 5.121 |
| B3 | 5.098 |
| B4 | 5.159 |
| B5 | 5.145 |
| B6 | 5.089 |

Source: patent US20240026407A1, “MODIFICATION OF SAPONINS” (GLAXOSMITHKLINE BIOLOGICALS SA, priority 2020, published 2024)
